# Measurements: patent publication US20120135472
# B1: large fragment of Nanoarchaeum equitans DNA polymerase (Neq L) (protein)
# chain: MLHQLPTMVVEEKAVKEEEGYSVLKCYWINIENTPLDEVILIGKDENNRACEVIIPYKWYFYFEGDIKDLEEFANNKKIKIEYTKEQKKYIEKPKDVYKVYVLHKHYPILKEFIKEKGYKKYETDINVYRKFLIDKGIEPFEWFEVEGKILLSTSNKVRIKAQSIKRLYEKTKPSVLAFDIEVYSEAFPNPEKDKIISIALYGDNYEGVISYKGEPTIKVNTEYELIEKFVEIIESLKPDIIVTYNGDNFDIDFLVKRASLYNIRLPIKLVNKKEPTYNFRESAHVDLYKTITTIYKTQLSTQTYSLNEVAKEILGEEKIYDYENMLYDWAIGNYNKVFEYNLKDAELTYKLFKYYENDLLELARLVNQPLFDVSRFSYSNIVEWYLIKKSRKYNEIVPNKPKMEEVERRKLNTYAGAFVYEPKPGLYENLAVLDFASLYPSIILEHNVSPGTIYCEHDDCKQNGVEAIINNEKKYVWFCKKVKGFIPTVLEHLYTKRLELKRKLKELDRDSEEYKIINAKQAVLKIIINATYGYMGFPNARWYCIDCAAAVAAWGRKYINYILKRAEEEGFKVIYGDSIMDTEIEVIENGIKKKEKLSDLFNKYYAGFQIGEKHYAFPPDLYVYDGERWVKVYSIIKHETETDLYEINGITLSANHLVLSKGNWVKAKEYENKNN
# Biological target: T1, small fragment of Nanoarchaeum equitans DNA polymerase (Neq S)
# T1 chain: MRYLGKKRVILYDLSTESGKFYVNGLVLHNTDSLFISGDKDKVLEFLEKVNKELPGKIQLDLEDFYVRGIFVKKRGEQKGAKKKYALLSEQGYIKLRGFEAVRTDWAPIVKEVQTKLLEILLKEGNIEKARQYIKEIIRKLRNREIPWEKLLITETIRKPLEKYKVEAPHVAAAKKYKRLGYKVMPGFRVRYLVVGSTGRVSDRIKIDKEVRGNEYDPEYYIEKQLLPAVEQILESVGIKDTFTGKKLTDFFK
protein,measurement,value
B1,"activity of DNA polymerase (3H-dTTP incorporation, relative to 20 pmoles of Neq P = 100%)","The activity of DNA polymerase of the solution was very low after the protein trans-splicing of Neq L and Neq S at 60° C., but was maximized at 95 °C"
